According to patent US9670514B2, “Method for producing polysaccharide” (SANYO CHEMICAL INDUSTRIES, LTD., priority 2011, dated 2017):

Key:
[1] = Specific activity of ribonucleoside diphosphate conversion enzyme solutions (TLC, UV 260 nm); assay type: biochemical; settings: 1 mM uridine diphosphate, 30° C., pH 7.0, with the co-substrate of each enzyme
Description: Reaction solution (2) was prepared by adding 10 μL of 1 M sucrose aqueous solution and 10 μL of sucrose synthase aqueous solution (D7-1) to 1 mL of aqueous solution R (50 mM phosphate buffer (pH of 7.0) containing 100 mM sodium chloride, 10 mM magnesium chloride, and 1 mM uridine diphosphate). Three such reaction solutions (2) were prepared and allowed to react at 30° C. for 5 minutes, 10 minutes, and 15 minutes, respectively. As for the amount of compound (C-7) as the reaction product (uridine diphosphate-glucose), the reaction product was developed on TLC (PEI-Cellulose plate available from Sigma-Aldrich Corporation, hereinafter the same) (developing solvent: an aqueous solution containing 1 M LiCl and 1 M formic acid, hereinafter the same), and detected with a UV light (260 nm). The specific activity of sucrose synthase aqueous solution (D7-1) was calculated to be 0.3 U/μL from the relationship between the yield of compound (C-7) and the reaction time.
Reaction solution (3) was prepared by adding 0.1 mg of reduced thioredoxin and 10 μL of ribonucleotide diphosphate reductase aqueous solution (D6-1) to 1 mL of aqueous solution R. Three such reaction solutions (3) were prepared and allowed to react at 30° C. for 5 minutes, 10 minutes, and 15 minutes, respectively. As for the amount of compound (C-6) as the reaction product (deoxyuridine diphosphate), the reaction product was developed on TLC and detected with a UV light (260 nm). The specific activity of ribonucleotide diphosphate reductase aqueous solution (D6-1) was calculated to be 0.3 U/μL from the relationship between the yield of compound (C-6) and the reaction time. […]
Reaction solution (5) was prepared by adding 10 μL of nucleotidase aqueous solution (D3-1) to 1 mL of aqueous solution R. Three such reaction solutions (5) were prepared and allowed to react at 30° C. for 5 minutes, 10 minutes, and 15 minutes, respectively. For the amount of compound (C-3) as the reaction product (uridine monophosphate), the reaction product was developed on TLC and detected with a UV light (260 nm). […]

[2] = Enzyme activity ratio (Y1)=Vmax1/Vmax2 of conversion enzyme (Lineweaver-Burk); assay type: biochemical
From the text: In the present invention, in the case where ribonucleoside diphosphate conversion enzyme (D) is used, an enzyme activity ratio (Y1) calculated from the following formula (1) using enzyme activity Vmax1 and enzyme activity Vmax2 described below is preferably not lower than 0.1 in terms of efficient polysaccharide production and efficient use of the substrate (ribonucleoside diphosphate-monosaccharide (A)). Enzyme activity ratio (Y1)=Vmax1/Vmax2 (1) • Enzyme activity Vmax1: the enzyme activity of ribonucleoside diphosphate conversion enzyme (D) on ribonucleoside diphosphate. • Enzyme activity Vmax2: the enzyme activity of ribonucleoside diphosphate conversion enzyme (D) on ribonucleoside diphosphate-monosaccharide (A).
An enzyme reaction solution (II) containing specific amounts of substrate (ribonucleoside diphosphate or uridine diphosphate-monosaccharide (A)), enzyme (polysaccharide synthase (B) or ribonucleoside diphosphate conversion enzyme (D)), pH adjuster (K), and water is prepared, which is adjusted to a specific temperature and a specific pH. • Phosphate-containing compound (F) is added, if necessary, to the enzyme reaction solution (II) if the enzyme to be used is (D4). Reducing agent (d6) is added if the enzyme is (D6), and raw material (d7) of nucleotide sugar is added if the enzyme is (D7).
After preparation of the enzyme reaction solution (II), it is allowed to stand for enzyme reaction for 1 minute to 100 hours. Next, the amount (X) of the reaction product obtained from the reaction is measured to determine the initial enzyme reaction velocity v. Likewise, the initial enzyme reaction velocity v is determined, using the enzyme reaction solution (II) having a different substrate concentration. A Lineweaver-Burk plot is generated from the above-obtained initial enzyme reaction velocity v and substrate concentration, and the enzyme activity Vmax is determined therefrom.
The enzyme activity Vmax (M/s) is determined using Lineweaver-Burk plot derived from Michaelis-Menten kinetics. […]
In the above measurement, the result determined using ribonucleoside diphosphate conversion enzyme (D) as an enzyme and ribonucleoside diphosphate as a substrate represents Vmax1, and the result determined using ribonucleoside diphosphate conversion enzyme (D) as an enzyme and ribonucleoside diphosphate-monosaccharide (A) as a substrate represents Vmax2. In the case where two or more types of ribonucleoside diphosphate-monosaccharide (A) are used, Vmax2 is determined for each ribonucleoside diphosphate-monosaccharide (A). The enzyme activity ratio (Y1) is also determined for each type from formula (1) using each Vmax2. […]

Row | Substance | specific activity [1] [U/μL] | enzyme activity ratio (Y1) ([2]; Vmax2 substrate uridine diphosphate-N-acetylglucosamine) | enzyme activity ratio (Y1) ([2]; Vmax2 substrate uridine diphosphate-glucuronic acid) | enzyme activity ratio (Y1) of each type ([2]; Vmax2 substrates UDP-glucuronic acid, -N-acetylglucosamine, -N-acetylgalactosamine, -glucose, -mannose, -glucosamine) | enzyme activity ratio (Y1) of each type ([2]; Vmax2 substrates uridine diphosphate-glucuronic acid and uridine diphosphate-N-acetylglucosamine)
1 | sucrose synthase aqueous solution (D7-1): sucrose synthase, SEQ ID NO: 2, derived from Vicia faba | 0.3 | ≥ 10 | ≥ 10 |  | 
2 | pyruvate kinase aqueous solution (D4-1-1): pyruvate kinase, SEQ ID NO: 4, derived from Escherichia coli | 0.3 |  |  | ≥ 10 | 
3 | polyribonucleotide nucleotidyltransferase aqueous solution (D5-1): polyribonucleotide nucleotidyltransferase, SEQ ID NO: 6, derived from Escherichia coli | 0.3 |  |  |  | ≥ 10
